Results on 1 substance are retold here after patent US20160010082A1.

For the assay, the target named is Alexa labeled human IgG. The assay is described as follows: flow cytometry of E. coli displaying the construct, 300 nM Alexa labeled human IgG; two hour induction; reference CPX display. (In general: A flow cytometer gives signals particle by particle.)

Turning to “eCPX displaying the mini-Z-domain at the N-terminus”, the fold higher display level than from CPX was 3 fold.
